Source: patent US5753483A, “Purified homogeneous UDP-GlcNAc (GalNAc) pyrophosphorylase” (priority 1995, dated 1998)

Legend:
[1] = system: CC(=O)N[C@H]1[C@@H](OP(=O)(O)OP(=O)(O)OC[C@H]2O[C@@H](n3ccc(=O)[nH]c3=O)[C@H](O)[C@@H]2O)O[C@H](CO)[C@H](O)[C@@H]1O; assay: purified protein, by the assay type; settings: other: reverse direction, PP = 1 mM; 37.0 °C
[2] = system: CC(=O)NC1C(OP(=O)(O)OP(=O)(O)OCC2OC(n3ccc(=O)[nH]c3=O)C(O)C2O)OC(CO)C(O)C1O; assay: purified protein, by the assay type; settings: other: reverse direction, PP = 1 mM; 37.0 °C

Pyrophosphorylase (Sus scrofa), sequence (chain, as listed by the source): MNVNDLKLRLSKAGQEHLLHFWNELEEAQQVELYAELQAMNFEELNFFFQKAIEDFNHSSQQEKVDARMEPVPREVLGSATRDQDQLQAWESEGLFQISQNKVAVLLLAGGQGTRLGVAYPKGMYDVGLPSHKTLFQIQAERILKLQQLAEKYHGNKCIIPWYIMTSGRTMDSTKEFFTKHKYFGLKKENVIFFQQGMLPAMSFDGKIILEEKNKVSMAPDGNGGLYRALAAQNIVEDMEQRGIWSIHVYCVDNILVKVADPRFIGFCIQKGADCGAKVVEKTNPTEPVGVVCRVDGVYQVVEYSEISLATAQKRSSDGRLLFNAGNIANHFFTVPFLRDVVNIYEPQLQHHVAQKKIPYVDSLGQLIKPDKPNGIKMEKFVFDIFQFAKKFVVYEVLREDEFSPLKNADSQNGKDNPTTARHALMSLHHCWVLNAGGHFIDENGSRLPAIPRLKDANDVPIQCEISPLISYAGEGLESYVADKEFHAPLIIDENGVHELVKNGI

Pyrophosphorylase (Sus scrofa) showed a Km [1] of 200 µM and a Km [2] of 45 µM.
